Where “and” joins values, the source holds several entries; their conditions need not be identical. Equal entries are not always repeated.
Columns and labels:
[1] = biological target: T1, recombinant human BCMA Fc(kih) (human, UniProt Q02223 4-53, biotinylated at the avi-tag at the C-terminus of the Fc knob chain ; Biotinylated in vivo (BirA) at the avi-tag at the C-terminus of the Fc knob chain. That part is not in the letters.); test: SPR (Biacore T200, 25 C), IgG captured on anti-human Fab chip, BCMA Fc(kih) as analyte, 1:1 Langmuir fit
T1 construct: Monomeric Fc fusion made by knobs-into-holes; also called huBCMA Fc(kih); biotinylated human BCMA; not shown: Human IgG1 hinge-Fc knob chain with C-terminal avi-tag, and the unfused human IgG1 Fc hole chain
Description: The affinity of the interaction between anti-BCMA antibodies and recombinant human BCMA Fc(kih) was also determined. Anti-human Fab antibody (GE Healthcare) was directly coupled on a CMS chip at pH 5.0 using the standard amine coupling kit (Biacore, Freiburg/Germany). The immobilization level was about 6500 RU. […] Recombinant human BCMA Fc(kih) was passed at a […] concentration range (1.95 to 500 nM) with a flow of 30 μL/minutes through the flow cells over 120 seconds. The dissociation was monitored for 120 seconds. Bulk refractive index differences were corrected for by subtracting the response obtained on reference flow cell. […] Kinetic constants were derived using the Biacore T100 Evaluation Software (vAA, Biacore AB, Uppsala/Sweden), to fit rate equations for 1:1 Langmuir binding by numerical integration (Table 7).

[2] = biological target: T1, recombinant human BCMA Fc(kih); test: competition ELISA: 500 or 1000 nM Fab on plate-bound biotinylated human BCMA; competitor murine APRIL 50 nM/1200 ng/mL; bound Fab read as OD450
Description: 500 nM or 1000 nM purified Fabs were added to saturate the coated human BCMA for 1 h at room temperature. […] The plate was washed 3 times with PBS and anti-FLAG-HRP secondary antibody (1:4000) was added for 1 h. Again, the plate was washed 3 times with PBS and developed by adding 100 ul/well BM Blue POD (Roche). The reaction was stopped by adding 50 ul/well 1M H₂SO₄ and the OD was read at 450 nm (reference at 650 nm) for a final read-out of OD₄₅₀₋₆₅₀.

[3] = biological target: T1, recombinant human BCMA Fc(kih); test: SPR (ProteOn XPR36, 25 C), biotinylated BCMA Fc(kih) on NLC chip, Fab as analyte, monovalent affinity
Description: Buffer (PBST) was injected along the sixth channel to provide an “in-line” blank for referencing. Association rate constants (kon) and dissociation rate constants (koff) were calculated using a simple one-to-one Langmuir binding model in ProteOn Manager v3.1 software by simultaneously fitting the association and dissociation sensorgrams. The equilibrium dissociation constant (KD) was calculated as the ratio koff/kon.

[4] = biological target: T2, cynomolgus BCMA stably expressed on HEK293T cells (cynoBCMA-HEK293T) (cynomolgus, UniProt A0A2K5UD97 1-183); test: cell-based or functional assay
T2 sequence (A0A2K5UD97 entry or part of it): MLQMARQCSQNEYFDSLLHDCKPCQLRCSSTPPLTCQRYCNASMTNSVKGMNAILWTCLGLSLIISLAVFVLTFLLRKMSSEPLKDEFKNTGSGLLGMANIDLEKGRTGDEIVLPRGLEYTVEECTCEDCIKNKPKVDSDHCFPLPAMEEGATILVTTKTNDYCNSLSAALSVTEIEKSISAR

[5] = biological target: T3, human BCMA on human myeloma cells (H929, L363, RPMI-8226, JJN-3, patient myeloma plasma cells) (human, UniProt Q02223 1-184); test: cell-based or functional assay
T3 sequence (looked up): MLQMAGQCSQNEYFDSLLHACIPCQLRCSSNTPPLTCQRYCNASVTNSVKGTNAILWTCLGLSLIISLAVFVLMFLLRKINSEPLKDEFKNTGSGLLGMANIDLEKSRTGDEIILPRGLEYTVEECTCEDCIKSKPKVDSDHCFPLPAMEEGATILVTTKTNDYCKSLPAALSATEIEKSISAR

[6] = biological target: T3, human BCMA on human myeloma cells …; test: cell-based or functional assay; remark: listed apart in the source
[7] = biological target: T4, human BCMA stably expressed on HEK293T cells (huBCMA-HEK293T) (human, UniProt Q02223 1-184)
T4 sequence (looked up): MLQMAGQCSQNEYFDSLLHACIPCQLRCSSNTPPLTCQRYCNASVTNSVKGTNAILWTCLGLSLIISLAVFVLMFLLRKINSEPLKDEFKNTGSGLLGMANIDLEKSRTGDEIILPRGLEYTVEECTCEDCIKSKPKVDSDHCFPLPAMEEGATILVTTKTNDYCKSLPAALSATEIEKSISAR

[8] = biological target: T2, cynomolgus BCMA stably expressed on …
[9] = biological target: T5, human CD3ε on Jurkat T cells (human, UniProt P07766 23-207); test: flow cytometry on CD3-positive Jurkat T cells
T5 construct: whole, on cells; On cells it is part of the TCR/CD3 complex; also called CD3-positive Jurkat T cells
T5 sequence (P07766 23-207): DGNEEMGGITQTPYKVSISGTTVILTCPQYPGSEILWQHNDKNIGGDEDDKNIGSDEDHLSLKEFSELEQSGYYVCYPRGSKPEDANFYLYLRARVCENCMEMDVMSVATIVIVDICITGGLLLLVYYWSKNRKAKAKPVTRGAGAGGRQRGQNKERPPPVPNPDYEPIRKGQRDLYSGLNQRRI
Description: Jurkat T cells were cultured in RPMI supplemented with 10% heat-inactivated FCS. Briefly, cultured cells were harvested, counted and cell viability was evaluated using ViCell. Viable cells were then adjusted to 2×10⁶ cells per ml in FACS Stain Buffer (BD Biosciences) containing 0.1% BSA. 100 μl of this cell suspension were further aliquoted per well into a round-bottom 96-well plate. 30 μl of the anti-BCMA/anti-CD3 TCB antibodies or corresponding IgG control were added to the cell-containing wells to obtain final concentrations of 3 nM to 500 nM or 0.1 pM to 200 nM. Anti-BCMA/anti-CD3 TCB antibodies and control IgG were used at the same molarity. After incubation for 30 min at 4° C., cells were centrifuged (5 min, 350×g), washed twice with 150 μl/well BSA-containing FACS Stain Buffer (BD Biosciences), then cells were fixed using 100 ul BD Fixation buffer per well (#BD Biosciences, 554655) at 4° C. for 20 min, resuspended in 120 μl FACS buffer and analyzed using BD FACS Cantoll. Binding of the anti-BCMA/anti-CD3 TCB antibodies to T cells were evaluated and the median fluorescence intensity was determined gated on CD3-expressing Jurkat T cells and plotted in histograms or dot plots.

[10] = biological target: T3, human BCMA on human myeloma cells …; test: cell-based or functional assay; remark: listed apart in the source
[11] = biological target: T3, human BCMA on human myeloma cells …

B1: 13A4 anti-BCMA IgG (antibody, V domains shown)
VH: EVQLVQSGAEVKKPGESLKISCKGSGYSFTSYWIGWVRQMPGKGLEWMGIIYPGDSDTRYSPSFQGQVTISADKSISTAYLQWSSLKASDTAMYYCARNGYLGDYWGQGTLVTVSS
VL: not shown
notes: also called anti-BCMA antibody clone 13A4; MAB 13A4
In the case of B1, the Kd [1] is reported as 5100 pM, the koff [1] is reported as 0.00036 s⁻¹ and the kon [1] is reported as 72000 M⁻¹ s⁻¹.

B2: anti-BCMA Fab clone 13A4 (Fab, V domains shown)
VH: EVQLVQSGAEVKKPGESLKISCKGSGYSFTSYWIGWVRQMPGKGLEWMGIIYPGDSDTRYSPSFQGQVTISADKSISTAYLQWSSLKASDTAMYYCARNGYLGDYWGQGTLVTVSS
VL: not shown
notes: Phage-display Fab (Vk2D_28/VH5_1), bacterially expressed
In the case of B2, the “reduction in OD (450 nm) in absence vs. presence of murine Δ-APRIL” value [2] is reported as 13.1% and the Kd [3] is reported as 1800 pM.

B3: 83A10-TCBcv (anti-BCMA/anti-CD3 T cell bispecific antibody, 2+1 Fc-containing, with charge variant) (bispecific antibody, human IgG1, kappa, L234A L235A)
heavy 1: not shown
heavy 2: not shown
light 1: EVQLLESGGGLVQPGGSLRLSCAASGFTFSTYAMNWVRQAPGKGLEWVSRIRSKYNNYATYYADSVKGRFTISRDDSKNTLYLQMNSLRAEDTAVYYCVRHGNFGNSYVSWFAYWGQGTLVTVSSASVAAPSVFIFPPSDEQLKSGTASVVCLLNNFYPREAKVQWKVDNALQSGNSQESVTEQDSKDSTYSLSSTLTLSKADYEKHKVYACEVTHQGLSSPVTKSFNRGEC
light 2: not shown
notes: also called 83A10-TCVcv
For B3, the “EC50 of lysis of cynoBCMA-HEK cells (LDH release), cyno PBMCs donor 1” value [4] was 3.5 pM, the “EC50 of lysis of cynoBCMA-HEK cells (LDH release), cyno PBMCs donor 2” value [4] was 2.7 pM and the “mean EC50 of lysis of cynoBCMA-HEK cells (LDH release)” value [4] was 3.1 pM. For the same binder, the “EC50 of Granzyme B secretion, PBMC + RPMI-8226 cells (CBA)” value [5] was 340 pM, the “EC50 of IL-10 secretion, PBMC + RPMI-8226 cells (CBA)” value [5] was 300 pM and the “EC50 of TNF-α secretion, PBMC + RPMI-8226 cells (CBA)” value [5] was 520 pM. The “EC50 for reduction of viable (annexin-V negative) myeloma plasma cells, bone marrow aspirate Patient 001” value [6] was 1000 pM, the “EC50 for reduction of viable (annexin-V negative) myeloma plasma cells, bone marrow aspirate Patient 002” value [6] was 8240 pM and the “EC50 for reduction of viable (annexin-V negative) myeloma plasma cells, bone marrow aspirate Patient 003” value [6] was 8020 pM. For the same binder, the EC50 [7] was 15600 pM, the EC50 [8] was 7800 pM and the binding result [9] was “binds”. For the same binder, the “EC50 of redirected T-cell killing of RPMI-8226 cells (LDH release), Donor 2” value [10] was 620 pM, the “EC50 of redirected T-cell killing of RPMI-8226 cells (LDH release), Donor 3” value [10] was 229 pM and the “EC50 of redirected T-cell killing of RPMI-8226 cells (LDH release), Donor 4” value [10] was 35 pM. The “EC50 of redirected T-cell killing of RPMI-8226 cells (LDH release), Donor 5” value [10] was 64.9 pM and the EC50 [11] was ~17.4 nM and ~2.51 µg/mL.

B4: 17A5-TCBcv (anti-BCMA/anti-CD3 T cell bispecific antibody, 2+1 Fc-containing, with charge variant) (bispecific antibody, human IgG1, kappa, L234A L235A)
heavy 1: not shown
heavy 2: not shown
light 1: EVQLLESGGGLVQPGGSLRLSCAASGFTFSTYAMNWVRQAPGKGLEWVSRIRSKYNNYATYYADSVKGRFTISRDDSKNTLYLQMNSLRAEDTAVYYCVRHGNFGNSYVSWFAYWGQGTLVTVSSASVAAPSVFIFPPSDEQLKSGTASVVCLLNNFYPREAKVQWKVDNALQSGNSQESVTEQDSKDSTYSLSSTLTLSKADYEKHKVYACEVTHQGLSSPVTKSFNRGEC
light 2: not shown
B4: binds [9].

— patent publication US20170306036A1 (ENGMAB, published 2017)
